The values that follow are results of earlier work, collected in PMC6704634.

In this data set the target is EGFR isoform I (Homo sapiens) (UniProt P00533).

Turning to EGF (from UniProt P01133), the dissociation constant Kd was 177 nM.

For orientation: Kd means the constant that tells how readily two partners part at equilibrium.
